Assay results as given in the RNAGym collection of RNA variant scans (doi:10.1021/acssynbio.7b00057).

B1: Pistol ribozyme (parent)
chain: GGGUCGUUGUUCCAUAAUCGCGUGGAUAUGGCACGCAAGUUUCUACCGGGCACCGUAAAUGUCCGACUGGAGCCGUUCGGGCGGCUAUAAACAGACCUCAGGCCCGAAGCGUGGCGGCACCUGCCGCCGGUGGUAAAAAAGAUCGGAAGAGCACACGUCU

Variants of: B1
Test: aptazyme ON/OFF ratio, guanine; higher = stronger switching; co-transcriptional cleavage with and without guanine

| Variant | aptazyme ON/OFF ratio |
| --- | --- |
| U7A U8G G9C U10C U11A C12U C13A | 1.13 |
| U7A U8G G9C U10C U11A C12U C13U | 1.2 |
| U7A U8G G9C U10C U11A C12U C13G | 1.18 |
| U7A U8G G9C U11A C12U C13G | 1.37 |
| U7A U8G G9C U11A C12U C13U | 1.46 |
| U7A U8G G9C U11A C12U C13A | 1.4 |
| U7A U8G G9C U11C | 1.35 |
| U7A U8G G9C U11A | 2.34 |
| U7A U8G G9C U11G | 1.57 |
| U7A U8G G9C U11C C12A C13A | 1.17 |
| U7A U8G G9C U11C C12A C13G | 1.18 |
| U7A U8G G9C U11C C12A C13U | 1.66 |
| U7A U8G G9U U10C U11G C12A | 1.5 |
| U7A U8G G9U U10C U11G C12U | 1.21 |
| U7A U8G G9U U10C U11G C12G | 1.45 |
| U7A U8G G9U U10C U11G C13U | 1.31 |
| U7A U8G G9U U10C U11G C13G | 1.38 |
| U7A U8G G9U U10C U11G C13A | 1.28 |
| U7A U8G G9U U10C U11C C12U | 1.36 |
| U7A U8G G9U U10C U11C C12A | 1.3 |
| U7A U8G G9U U10C U11C C12G | 1.37 |

| Variant | aptazyme ON/OFF ratio |
| --- | --- |
| U7A U8G G9C U10C U11A C12G C13A | 1.23 |
| U7A U8G G9C U10C U11A C12G C13G | 1.21 |
| U7A U8G G9C U10C U11A C12G C13U | 1.17 |
| U7A U8G G9U C12U C13U | 1.26 |
| U7A U8G G9U C12U C13G | 1.17 |
| U7A U8G G9U C12U C13A | 1.64 |
| U7A U8G G9U U10C U11C C12G C13G | 1.11 |
| U7A U8G G9U U10C U11C C12G C13U | 1.46 |
| U7A U8G G9U U10C U11C C12G C13A | 1.2 |
| U7A U8G G9C U10C U11G C12U C13U | 1.41 |
| U7A U8G G9C U10C U11G C12U C13G | 1.15 |
| U7A U8G G9C U10C U11G C12U C13A | 1.15 |
| U7A U8G G9U U10A C12A C13G | 1.28 |
| U7A U8G G9U U10A C12A C13U | 1.36 |
| U7A U8G G9U U10A C12A C13A | 1.31 |
| U7A U8G G9C U10G | 1.46 |
| U7A U8G G9U C13G | 1.14 |
| U7A U8G G9U C13U | 1.96 |
| U7A U8G G9U C13A | 1.25 |
| U7A U8G G9C U11A C12A C13U | 1.47 |
| U7A U8G G9C U11A C12A C13A | 1.25 |

| Variant | aptazyme ON/OFF ratio |
| --- | --- |
| U7A U8G G9C U11A C12A C13G | 1.37 |
| U7A U8G G9C U11A C12G C13U | 1.28 |
| U7A U8G G9C U11A C12G C13A | 1.11 |
| U7A U8G G9C U11A C12G C13G | 1.35 |
| U7A U8G G9C U10G U11C C12A C13A | 1.38 |
| U7A U8G G9C U10G U11C C12A C13G | 1.22 |
| U7A U8G G9C U10G U11C C12A C13U | 1.29 |
| U7A U8G G9U U10A U11C C12G C13U | 1.4 |
| U7A U8G G9U U10A U11C C12G C13G | 1.27 |
| U7A U8G G9U U10A U11C C12G C13A | 1.14 |
| U7A U8G G9C U11C C12U C13A | 1.41 |
| U7A U8G G9C U11C C12U C13U | 1.22 |
| U7A U8G G9C U11C C12U C13G | 1.38 |
| U7A U8G G9U U10A U11C C13U | 0.998 |
| U7A U8G G9U U10A U11C C13G | 1.09 |
| U7A U8G G9U U10A U11C C13A | 1.02 |
| U7A U8G G9C U11C C12G C13A | 1.19 |
| U7A U8G G9C U11C C12G C13U | 1.37 |
| U7A U8G G9C U11C C12G C13G | 1.11 |
| U7A U8G G9C U10C U11A C12A C13U | 1.18 |
| U7A U8G G9U U10A U11G C12A C13U | 1.19 |

| Variant | aptazyme ON/OFF ratio |
| --- | --- |
| U7A U8G G9U U10A U11G C12A C13A | 1.11 |
| U7A U8G G9U U10A U11G C12A C13G | 1.12 |
| U7A U8G G9C U10G U11G | 1.25 |
| U7A U8G G9C U10G U11A | 1.07 |
| U7A U8G G9C U10G U11C | 1.04 |
| U7A U8G G9U U10A U11C C12A | 1.39 |
| U7A U8G G9U U10A U11C C12U | 1.04 |
| U7A U8G G9U U10A U11C C12G | 1.43 |
| U7A U8G G9U U10A U11G C12U C13G | 1.16 |
| U7A U8G G9U U10A U11G C12U C13U | 1.18 |
| U7A U8G G9U U10A U11G C12U C13A | 1.08 |
| U7A U8G G9C U10C U11C C12U C13G | 1.06 |
| U7A U8G G9C U10C U11C C12U C13A | 1.05 |
| U7A U8G G9C U10C U11C C12U C13U | 1.01 |
| U7A U8G G9U U10G C12A C13A | 1.27 |
| U7A U8G G9U U10G C12A C13U | 1.15 |
| U7A U8G G9U U10G C12A C13G | 1.14 |
| U7A U8G G9C U10G C12G C13A | 1.3 |
| U7A U8G G9C U10G C12G C13U | 1.44 |
| U7A U8G G9C U10G C12G C13G | 1.17 |
